The source of these data is US20030165489A1.

Data set [1] has as its target T1, SP (substance P) (UniProt P20366).
T1 sequence: RPKPQQFFGLM

The target of data set [2] is SP (substance P) (UniProt P20366). The data set is described as follows: cell-based or functional assay.

In the case of “Recombinant dipeptidyl peptidase IV (DPPIV), soluble form secreted from Aspergilus Fumigatus”, the “degradation of SP identified by mass-spectrometry” value in the data set with SP (substance P) [1] is “SP (1.8 µg) co-incubated with 0.016 µg of DPPIV for ten minutes at 37 °C is degraded to SP5-11”.

As to “Recombinant dipeptidyl peptidase IV (DPPIV), soluble form secreted from Aspergilus Fumigatus (enzyme)”, in the data set with SP (substance P) [2], the diminution of SP-evoked vasodilatory response (100 pg SP, pig in vivo, after 50 µg DPPIV) turned out to be 66% and the diminution of SP-evoked vasodilatory response (1 ng SP, pig in vivo, after 50 µg DPPIV) turned out to be 71%.
